# Measurements: patent US20200317768A1 (published 2020)
# Numbering of substitutions follows the chain as printed. Names may count otherwise.
# T1: cynomolgus monkey FcγRIIb extracellular domain, C-terminal His-tag (cynomolgus monkey)
# T1 construct: also called cyno FcγRIIb; cynoFcγRIIb; not shown: His-tag added to the C-terminus
# T1 chain: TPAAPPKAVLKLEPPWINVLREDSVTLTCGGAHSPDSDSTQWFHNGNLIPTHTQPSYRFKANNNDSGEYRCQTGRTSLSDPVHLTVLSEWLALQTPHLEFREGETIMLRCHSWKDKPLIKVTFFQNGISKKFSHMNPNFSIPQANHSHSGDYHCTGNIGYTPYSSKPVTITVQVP
# T2: cynomolgus monkey FcγRIIa1 extracellular domain, C-terminal His-tag (cynomolgus monkey)
# T2 construct: also called cyno FcγRIIa1; FcgRIIa1; not shown: His-tag added to the C-terminus
# T2 chain: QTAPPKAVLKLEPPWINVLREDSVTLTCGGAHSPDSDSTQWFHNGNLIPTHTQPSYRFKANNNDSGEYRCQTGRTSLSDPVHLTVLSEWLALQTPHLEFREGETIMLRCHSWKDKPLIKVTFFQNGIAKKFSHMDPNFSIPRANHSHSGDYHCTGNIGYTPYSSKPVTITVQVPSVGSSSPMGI
# T3: human FcγRIIaH extracellular domain, C-terminal His-tag (human, UniProt P12318 34-217)
# T3 construct: also called human FcγRIIa (type H); FcgRIIaH; not shown: His-tag added to the C-terminus
# T3 sequence: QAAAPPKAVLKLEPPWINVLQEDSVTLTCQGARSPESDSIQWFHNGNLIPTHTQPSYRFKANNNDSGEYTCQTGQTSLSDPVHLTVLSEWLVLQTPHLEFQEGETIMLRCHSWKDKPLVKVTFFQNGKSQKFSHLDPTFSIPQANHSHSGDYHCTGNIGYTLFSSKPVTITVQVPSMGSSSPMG
# T4: human FcγRIIaR extracellular domain, C-terminal His-tag (human, UniProt P12318 34-217)
# T4 construct: also called human FcγRIIa (type R); FcgRIIaR; not shown: His-tag added to the C-terminus
# T4 chain: T3 sequence with H134R
# T5: cynomolgus monkey FcγRIIa2 extracellular domain, C-terminal His-tag (cynomolgus monkey)
# T5 construct: also called cyno FcγRIIa2; FcgRIIa2; not shown: His-tag added to the C-terminus
# T5 chain: T2 chain with P95T, T121A, I127K, A128S, K130N, D135N, R142Q
# T6: cynomolgus monkey FcγRIIa3 extracellular domain, C-terminal His-tag (cynomolgus monkey)
# T6 construct: also called cyno FcγRIIa3; FcgRIIa3; not shown: His-tag added to the C-terminus
# T6 chain: T2 chain with P95T, T121A, A128S, H133P, D135N
# T7: cynomolgus monkey FcγRIIa1 extracellular domain, C-terminal His-tag (cynomolgus monkey)
# T7 construct: also called cyno FcγRIIa1; cynoFcgRIIa1
# T7 chain: T2 chain
# B1: MS1032LO06-SG1 (M103205H795-SG1/M103202L889-SK1) (antibody, human IgG1, kappa)
# heavy: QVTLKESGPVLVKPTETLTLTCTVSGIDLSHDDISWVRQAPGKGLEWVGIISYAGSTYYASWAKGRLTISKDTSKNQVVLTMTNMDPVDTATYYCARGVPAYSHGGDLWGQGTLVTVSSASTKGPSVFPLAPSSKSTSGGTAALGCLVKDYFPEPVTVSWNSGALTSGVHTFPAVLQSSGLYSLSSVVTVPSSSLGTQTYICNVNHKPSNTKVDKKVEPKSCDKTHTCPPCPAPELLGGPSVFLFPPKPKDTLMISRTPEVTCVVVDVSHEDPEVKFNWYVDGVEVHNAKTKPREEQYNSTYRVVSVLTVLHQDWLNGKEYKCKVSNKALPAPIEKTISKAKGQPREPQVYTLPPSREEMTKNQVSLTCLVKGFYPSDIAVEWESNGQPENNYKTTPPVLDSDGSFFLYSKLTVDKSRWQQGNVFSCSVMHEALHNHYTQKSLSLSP
# light: DIVMTQSPATLSLSPGERATLSCTSSQSVYHANWLSWFQQKPGQPPKLLIYWASTLAYGVPSRFSGSGSGTDFTLTISSLQPEDAATYYCAGGYGGGRYAFGQGTKVEIKRTVAAPSVFIFPPSDEQLKSGTASVVCLLNNFYPREAKVQWKVDNALQSGNSQESVTEQDSKDSTYSLSSTLTLSKADYEKHKVYACEVTHQGLSSPVTKSFNRGEC
# notes: Anti-latent myostatin antibody
# B2: M103205H795-MY147/M103202L889-SK1 (antibody, human IgG1, kappa)
# heavy: QVTLKESGPVLVKPTETLTLTCTVSGIDLSHDDISWVRQAPGKGLEWVGIISYAGSTYYASWAKGRLTISKDTSKNQVVLTMTNMDPVDTATYYCARGVPAYSHGGDLWGQGTLVTVSSASTKGPSVFPLAPSSKSTSGGTAALGCLVKDYFPEPVTVSWNSGALTSGVHTFPAVLQSSGLYSLSSVVTVPSSSLGTQTYICNVNHKPSNTKVDKKVEPKSCDKTHTCPPCPAPELWNGPSVFLFPPKPKDTLMISRTPEVTCVVVDVSEEDPEVKFNWYVDGVEVHNAKTKPREEQYNSTYRVVSVLTVLHQDWLNGKEYKCKVSNKALPAPIEKTISKAKGQPREPQVYTLPPSREEMTKNQVSLTCLVKGFYPSDIAVEWESNGQPENNYKTTPMVLDSDGSFFLYSKLTVDKSRWQQGNVFSCSVMHEALHNHYTQKSLSLSP
# light: B1 light
# notes: Substitutions introduced into M103205H795-SG1; expressed with M103202L889-SK1 as light chain
# B3: MS1032LO06-MY352 (M103205H795-MY352/M103202L889-SK1) (antibody, human IgG1, kappa, name in EU numbering)
# heavy: B2 heavy with W237L, E270D, Q313R, A332K, M398P, D415R
# light: B1 light
# notes: Printed substitutions: G236N/H268D/Q311R/A330K/D413R (EU numbering); also called MS103205H795-MY352
# B4: MS1032LO06-PK57 (M103205H795-PK57/M103202L889-SK1) (antibody, human IgG1, kappa)
# heavy: B2 heavy with W237L, E270D, Q313R, A332K, N386R, M398P, D415R
# light: B1 light
# notes: CH PK57 = SG1 with G236N/H268D/Q311R/A330K/N384R/D413R (EU numbering); also called MS103205H795-PK57
# B5: MS1032LO06-PK55 (M103205H795-PK55/M103202L889-SK1) (antibody, human IgG1, kappa)
# heavy: B2 heavy with W237L, E270D, Q313R, A332K, P345R, M398P
# light: B1 light
# notes: CH PK55 = SG1 with G236N/H268D/Q311R/A330K/P343R (EU numbering); also called MS103205H795-PK55
# B6: M103205H795-MY141/M103202L889-SK1 (antibody, human IgG1, kappa)
# heavy: B2 heavy with W237L, S269A, E270H
# light: B1 light
# notes: as for B2
# B7: MS1032LO06-PK56 (M103205H795-PK56/M103202L889-SK1) (antibody, human IgG1, kappa)
# heavy: B2 heavy with W237L, E270D, Q313R, A332K, P345R, M398P, D415R
# light: B1 light
# notes: CH PK56 = SG1 with G236N/H268D/Q311R/A330K/P343R/D413R (EU numbering); also called MS103205H795-PK56
# B8: M103205H795-MY117/M103202L889-SK1 (antibody, human IgG1, kappa)
# heavy: B2 heavy with L236W, W237L, S269A
# light: B1 light
# notes: as for B2
# B9: MS1032LO06-MY351 (M103205H795-MY351/M103202L889-SK1) (antibody, human IgG1, kappa)
# heavy: B2 heavy with W237L, E270D, Q313R, A332K, M398P, D415K
# light: B1 light
# notes: CH MY351 = SG1 with G236N/H268D/Q311R/A330K/D413K (EU numbering); also called MS103205H795-MY351
# B10: MS1032LO06-MY201 (M103205H795-MY201/M103202L889-SK1) (antibody, human IgG1, kappa)
# heavy: B2 heavy with W237L, E270D, A332K, M398P
# light: B1 light
# notes: CH MY201 = SG1 with G236N/H268D/A330K (EU numbering); also called MS103205H795-MY201
# B11: M103205H795-MY197/M103202L889-SK1 (antibody, human IgG1, kappa)
# heavy: B2 heavy with W237L, E270D, A332K
# light: B1 light
# notes: as for B2
# Experiments:
# [1] = biological target: T1, cynomolgus monkey FcγRIIb extracellular …; test: SPR (BIACORE), antibody captured, soluble FcgR as analyte, 25C
# Description: (§1) The kinetic analysis of interactions between these antibodies and FcγR was carried out using BIACORE® T200 or BIACORE® 4000 (GE Healthcare). HBS-EP+ (GE Healthcare) was used as the running buffer, and the measurement temperature was set to 25° C. A chip produced by immobilizing Protein A. Protein A/G or mouse anti-human IgG kappa light chain (BD Biosciences) onto a Series S Sensor Chip CM4 or CM5 (GE Healthcare) by the amine-coupling method was used. […] After the measurement, the antibody captured on the chip was washed off by allowing reaction with 10 mM glycine-HCl, pH1.5 and 25 mM NaOH so that the chip was regenerated and used repeatedly. The sensorgrams obtained as measurement results were analyzed by the 1:1 Langmuir binding model using the BIACORE® Evaluation Software to calculate the binding rate constant ka (L/mol/s) and dissociation rate constant kd (l/s), and the dissociation constant KD (mol/L) was calculated from these values. […] Regarding such interactions, KD values were calculated using the following 1:1 binding model described in BIACORE® T100 Software Handbook BR1006-48 Edition AE.
# (§2) The behavior of interacting molecules according to the 1:1 binding model on BIACORE® can be described by Equation 1: Req=C·R max/(KD+C)+RI, wherein, Req is a plot of steady-state binding levels to analyte concentration. C is concentration, RI is bulk refractive index contribution in the sample, and Rmax is analyte binding capacity of the surface. When this equation is rearranged, KD can be expressed as Equation 2: KD=C·Rmax/(Req−RI)−C. KD can be calculated by substituting the values of Rmax, RI, and C into Equation 1 or Equation 2. From the current measurement conditions, RI=0, C=2 μmol/L can be used.
# [2] = biological target: T2, cynomolgus monkey FcγRIIa1 …; test: as above
# Description: as §1, §2
# [3] = biological target: T8, human FcγRIIIaV extracellular domain, C-terminal His-tag (human, UniProt P08637 17-208); test: as above
# T8 construct: also called FcgRIIIaV; not shown: His-tag added to the C-terminus
# Description: as §1, §2
# [4] = biological target: T3, human FcγRIIaH extracellular domain, …; test: as above
# Description: as §1, §2
# [5] = biological target: T4, human FcγRIIaR extracellular domain, …; test: as above
# Description: as §1, §2
# [6] = biological target: T5, cynomolgus monkey FcγRIIa2 …; test: as above
# Description: as §1, §2
# [7] = biological target: T6, cynomolgus monkey FcγRIIa3 …; test: as above
# Description: as §1, §2
# [8] = biological target: T7, cynomolgus monkey FcγRIIa1 …; test: SPR (Biacore); KD of SG1 / KD of variant;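 also: relative to parent M103205H795-SG1 carrying the SG1 human heavy chain constant region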
# T8 sequence (P08637 17-208 F176V): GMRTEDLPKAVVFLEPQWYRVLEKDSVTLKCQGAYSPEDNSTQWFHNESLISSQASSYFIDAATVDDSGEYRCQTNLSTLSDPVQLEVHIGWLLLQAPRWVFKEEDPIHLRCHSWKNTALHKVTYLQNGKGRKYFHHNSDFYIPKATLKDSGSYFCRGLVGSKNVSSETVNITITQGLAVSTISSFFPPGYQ
Kd [1] [µM],Kd [2] [µM],Kd [3] [µM],Kd [4] [µM],Kd [5] [µM],Kd [6] [µM],Kd [7] [µM],KD fold (SG1 = 1) [8] [fold],Binder
1.9,4.8,0.62,0.89,1,4.7,8.6,–,B1
–,–,–,–,–,–,–,1.5,B2
0.42,1.7,11,1.2,1.6,1.3,2.2,–,B3
0.52,1.9,23,1.3,2.2,1.7,3.1,–,B4
0.36,1.4,13,0.83,1.5,1.2,2,–,B5
–,–,–,–,–,–,–,1.5,B6
0.5,1.8,10,1.2,1.9,1.5,2.5,–,B7
–,–,–,–,–,–,–,1.2,B8
0.38,1.6,7.4,1.2,1.6,1.3,2.2,–,B9
0.33,1.5,37,0.98,1.2,1.2,1.8,–,B10
–,–,–,–,–,–,–,5.5,B11
